We go through six molecules from paper PMC8902505, “A Continuous Assay Set to Screen and Characterize Novel Protein N-Acetyltransferases Unveils Rice General Control Non-repressible 5-Related N-Acetyltransferase2 Activity” (Frontiers in Plant Science, 2022).

For one data set, the target named is T1, OsGNAT2 (Oryza sativa, UniProt Q5KQI6).
T1 construct: gene SNAT1
Kind of data set: PDH-coupled continuous assay (NADH, […] nm). The data set is classed as biochemical. The note with it: upper bound inferred from no gain between 100 and 500 μM Ac-CoA; peptide substrate; pH 8.0; 30 °C.

Substrate in the data set “purified protein”: CC(=O)SCCNC(=O)CCNC(=O)[C@H](O)C(C)(C)COP(=O)(O)OP(=O)(O)OC[C@H]1O[C@@H](n2cnc3c(N)ncnc32)[C@H](O)[C@@H]1OP(=O)(O)O
Kind of data set: purified protein. The note with it: extrapolated to saturating reference peptide …, 12.5-500 μM Ac-CoA, pH 8.0, 30 °C.

In data set [1] the target is Schizosaccharomyces pombe NatA (SpNaa15 full length + SpNaa10 full length heterodimer) (Schizosaccharomyces pombe).
Data set [2] has the same target. This is another data set of the same source.

T1 sequence (Q5KQI6 89-254): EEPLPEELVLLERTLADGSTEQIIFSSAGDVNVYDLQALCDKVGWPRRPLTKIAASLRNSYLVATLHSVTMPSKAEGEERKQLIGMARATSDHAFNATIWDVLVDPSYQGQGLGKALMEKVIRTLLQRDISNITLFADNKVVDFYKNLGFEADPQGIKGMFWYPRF

For the molecule `CC(=O)SCCNC(=O)CCNC(=O)[C@H](O)C(C)(C)COP(=O)(O)OP(=O)(O)OC[C@H]1O[C@@H](n2cnc3c(N)ncnc32)[C@H](O)[C@@H]1OP(=O)(O)O` [Ac-CoA], the Michaelis constant (Km) on OsGNAT2 is < 0.03 mM.

B1: SpNatA (Schizosaccharomyces pombe 972h-) (protein)
chain: MDIRPARISDLTGMQNCNLHNLPENYQLKYYLYHAISWPMLSYVATDPKGRVVGYVLAKMEEEPKDGIPHGHITSVSVMRSYRHLGLAKRLMVQSQRAMVEVYGAKYMSLHVRKSNRAAIHLYRDTLQFDVQGIESKYYADGEDAYAMHKDFSTLKFDTPETNDELAKTVQSLALNN
In the case of B1, in “purified protein”, the Km is recorded as 0.020 ± 0.003 mM, the kcat was 10 s⁻¹ and the kcat/Km was 508000 ± 89900 M⁻¹ s⁻¹.

Regarding SASEAGVR [peptide SASEAGVR], in data set [1], the Km of the peptide substrate, PDH-coupled acetylation assay, 100 μM Ac-CoA, 30°C amounted to 14.8 mM. Also, the Km of the peptide substrate, PDH-coupled acetylation assay, 100 μM Ac-CoA, 30°C (value as told in the text) in data set [2] is 12 mM.

For SASEAGVRWGRPVGRRRRP [reference peptide … (canonical NatA substrate)], the Km of the peptide substrate, PDH-coupled acetylation assay, 100 μM Ac-CoA, 30°C in data set [1] was determined as 1 mM.

As for SASEAGV [peptide SASEAGV], the Km of the peptide substrate, PDH-coupled acetylation assay, 100 μM Ac-CoA, 30°C in data set [1] came to 25.5 mM. Besides, the Km of the peptide substrate, PDH-coupled acetylation assay, 100 μM Ac-CoA, 30°C (value as told in the text) in data set [2] was 19 mM.

In the case of SASEAGVAEQVKKLSVNDS [natural 19-amino acid N-terminal sequence of yeast Ths1p, …], the Km of the peptide substrate, PDH-coupled acetylation assay, 100 μM Ac-CoA, 30°C in data set [1] is 2.3 mM.
